Molecular target: the molecule itself
Assay: FRET or BRET; same proteoliposomes after cholesterol delivery by dialysis against cholesterol-loaded mβCD (up to 24 h); protein-to-lipid ratio 1:16,000; 30°C; relative FRET efficiency

B1: MBP-Ire1^(P501-K570, C552S) with a C-terminal cysteine (domain or fragment, Saccharomyces cerevisiae)
chain: PEDLEAYRKKIHEQISRELDEKNQNSLLLKFGSLVYRIIETGVFLLLFLIFSAILQRFKILPPLYVLLSKC
modifications: C-terminal cysteine modified by maleimide chemistry with ATTO514 (FRET donor), ATTO594 (FRET acceptor) or NEM (unlabeled)
notes: Ire1 from Saccharomyces cerevisiae, residues P501 to K570: the entire transmembrane region with the amphipathic helix and the short transmembrane helix; endogenous cysteine 552 replaced by serine; single cysteine introduced at the C-terminal end of the construct for labeling; Donor-labeled (ATTO514) and acceptor-labeled (ATTO594) copies of the same construct were co-reconstituted; also called …
B1: binds.
